Test: soluble on expression in E. coli; label from the status in PepcDB or PDB records

Row | Sequence | soluble on expression in E. coli
1 | MGSDKIHHHHHHVASQTPGTEAQSQTVQPGRIAAISLHTSPLDQPGTGDAGGMNVYIVEVAKRLAERGIAVDIFTRATSFEQPPEVELAPGVTVRNIAAGPYGTLDKTALINYLCPFVHGMLRAEAEHLGGSYDLVHTHYWLSGQAGWPVAREWGVPLVHSMHTMARVKNMSLAEGDTPEPEERVRGEDALVALADRLIANTDDEAAQLINYYGASPSRVSTVFPGVDLTTFTPGSRAESLRRLGLPEDTILLLFVGRVQRLKAPDVLLRAAARLLELNPSLRDRLVVAVVGGQSGTGYREPWLLSDLADSLGIADLVRLEPPCPRAELVHYYRAATVTVVPSHSESFGLVAVESQACGTPVVAARVGGLPTAVRDGVSGVLIDGHDPHDYANVLHRMITEPRWRERMGAAGIHHASGLSWESTVDGLLAAYRDALHQCRLTVPCR | not soluble
2 | MKFGNFLLTYQPPELSQTEVMKRLVNLGKASEGCGFDTVWLLEHHFTEFGLLGNPYVAAAHLLGATETLNVGTAAIVLPTAHPVRQAEDVNLLDQMSKGRFRFGICRGLYDKDFRVFGTDMDNSRALMDCWYDLMKEGFNEGYIAADNEHIKFPKIQLNPSAYTQGGAPVYVVAESASTTEWAAERGLPMILSWIINTHEKKAQLDLYNEVATEHGYDVTKIDHCLSYITSVDHDSNRAKDICRNFLGHWYDSYVNATKIFDDSDQTKGYDFNKGQWRDFVLKGHKDTNRRIDYSYEINPVGTPEECIAIIQQDIDATGIDNICCGFEANGSEEEIIASMKLFQSDVMPYLKEKQ | soluble
3 | MKAVAINGYGTVGKRVADAIAQQDDMKVIGVSKTRPDFEARMALKKGYDLYVAIPERVKLFEKAGIEVAGTVDDMLDEADIVIDCTPEGIGAKNLKMYKEKGIKAIFQGGEKHEDIGLSFNSLSNYEESYGKDYTRVVSCNTTGLCRTLKPLHDSFGIKKVRAVIVRRGADPAQVSKGPINAIIPNPPKLPSHHGPDVKTVLDINIDTMAVIVPTTLMHQHNVMVEVEETPTVDDIIDVFEDTPRVILISAEDGLTSTAEIMEYAKELGRSRNDLFEIPVWRESITVVDNEIYYMQAVHQESDIVPENVDAVRAILEMEEDKYKSINKTNKAMNILQ | soluble
4 | MLEELGKVVEFKGKGVELHLDGQGEPFLYPYMEYFLEKASRMKGVEVVSIQSNGTLLTEEKISAIEDYVTRINLSLSSLDEKTAKTLHGAYSVKKVKEVAEMIASSKMDLLIAPVWVPGYNDREIPKIIEFALEIGAGKKYPPLGIQKYIPYRYGRKAGKSMPFKEFYRRLEEYEKEYGVKLVLGPEDFGMEKRPK | not soluble
5 | MGSDKIHHHHHHMILLNYSQCFCLHNESRQKIAPSCWLNIGVHYMRIQQLRDLLEYVANCRLDMAQLYGRLNNQADSARVKMMLEYFESHQKHVAEKLRDYMDEAPVRVLDTWYKDFVFEDFTKRCQDTMLPANMNEDDVLNLHLDLENRLIGLLEKTVNSTTAEDARTALEGLIRVEKIQQQRLVHSTIRMDDI | not soluble
6 | SNRHLCKECFKKDIERRAKKVLGKDIIRNNVKIGIGISGGKDSLVMAYILKELFKHIPNAKLICFFVDEGIKGFRNIAEKYVKEFCKEYNLDLKIIKFEDEIGYTLDEIVKNDYLSKLNIGKPCSFCGVVRRYLLNKHALKEGCDYLAIGHNLDDFCQTILMNYVEGNIKNIIQFGKEFEGGGFVKRIKPLKLIPEEEVKLYAEINNIKYQREPC | not soluble
7 | MGSDKIHHHHHHMTTILHAMLGKGLGGLEQVFLDYQPILEAWAARRGGRCVGVVRKGGKMAVAQANRTPPLSAMPALTDWDPITVGAARALVKTYRPALIFSHGQRPARVFDKAAPADVVRAVCLHKPSFDVTPGTHYVCVGQHLAALAIERGAPADHVWLVPNAVKPPGVEAQPFAEAGRPIRIVAAGRLHPKKGFDVLIHAVGKLRAWDYEVTCEIAGEGDERGALEGLIRDLDLEASVTLKGWTGDVAGFLATGDLFAFPSHQEGFPLTLLEAMAVGLPVVASEIDGPLEILTDGRDGRLVPDNDPDRLAEALAELISDRETAVRLGAAARQQVLTEYSPQELARRLEAALDGMTSRA | not soluble
8 | VNSVQIKNATAIVTGASSGIGLAFASLLAQKGYNLLLIARNINKLNDLAKTLSTQYDTQCNVLSIDLSEENASKKVLEYIITNNLNISVLINNAGFSGNYKFLEADWSQLSKELNVMSIAVTELCYLIAPLMEKNSWGRIINVSSGAAYLPPTQSLLYTGLKSYVLNFSQSLDMELKPKGINVTALCPGFTRSEFHNTMGTNKQVSKVPNFLWQA | not soluble
9 | MAHHHHHHMESIKAKCTAKNLVNEKPAQKTPLSISISEKHKAQLREAFDLFDSEGTGRIKALDVKVALCALGYDVSKEELTQLLKQVGGSIVGGVDFNEFYCVLLAKMMQRESRSEAIRAFRLIDVAEKGYISVDDLRPIADSLEMDLTDDELAEMVLFAHPPVGFGKNENDIKEPLTVSEEEFLKLMGRAHVY | soluble
10 | MKKGIDIGGTFIKVLWEDGKKEKHYIKDLKKDREALMEKIREVIKAGNPSGVGIAVAGFTSLNGIVYKSPNIPALDKTDFRKVLEDINIPFVVGNDVNLGAFGEWYYDYRDSKILLLVAVGTGLGTGLVYKGEVFFGVCGSALEMGHHTVKKGGELCNCGRKGCWEAYCSSYAIEREYKKLTGRTLKDYEIAEKAKEGEEEALKVVESFKDYLITGLMNGVHIFNPDRIVLAGGVIETFKEFLRDVPEKVKEISEELPALCLKISFSRAGEFMGARGALAYALKYLLEHHHHHH | soluble
11 | MGSDKIHHHHHHMWDWIGKLDELRRSNQLAVLVTVTKSSGSTPRKHGAKMIVLPDGTFYGTVGGGTPEYYALEDARACFETMQSTTSSVPLKQRGEFPACGGTMEFYMEVINDNPVLHLFGAGHIGQSLCQILDGTPFRIHLIDEREEWINAPNLPGSVIRHQRHYSDFIEKAIWCDKRTFVAIQTFSGTLDQQVLEEVLPNPTRYVGMIGSKAKWAKVRSNLEEKGLDLSAVRCPIGHDNGGNSPREIAISIASQLLSTYYGRE | not soluble
12 | MVAQQKNLEGYVGFANLPNQVYRKSVKRGFEFTLMVVGESGLGKSTLINSLFLTDLYSPEYPGPSHRIKKTVQVEQSKVLIKEGGVQLLLTIVDTPGFGDAVDNSNCWQPVIDYIDSKFEDYLNAESRVNRRQMPDNRVQCCLYFIAPSGHGLKPLDIEFMKRLHEKVNIIPLIAKADTLTPEECQQFKKQIMKEIQEHKIKIYEFPETDDEEENKLVKKIKDRLPLAVVGSNTIIEVNGKRVRGRQYPWGVAEVENGEHCDFTILRNMLIRTHMQDLKDVTNNVHYENYRSRKLAAVTYNGVDNNKNKGQLTKSPLAQMEEERREHVAKMKKMEMEMEQVFEMKVKEKVQKLKDSEAELQRRHEQMKKNLEAQHKELEEKRRQFEDEKANWEAQQRILEQQNSSRTLEKNKKKGKIF | soluble
13 | MGSDKIHHHHHHMDAMPSTTAITVSQLSRLVGLPGVPVIIDVRIDEDFDADPRLLPASIRRDFKTVSTWAPDFAGKPVVVVCQKGLKLSQGVAAWLRHEGIPAESLEGGFEAWREADGLLVSTDKLPPRDEKGRTVWVTRSRPKVDRIACPWLIRRFVDPRAVFLFVEAAEVPAVADRFQAVPFDIDNVFWSHRGERCTFDTMIEEFGLESTALDRLAAIVRAADTARLDLVPQAAGFLAASLGLSRMFRDDLEQLEAGMLLYDAFFRWCRDATEETHNWPSAGKPS | not soluble
14 | MGSDKIHHHHHHMKVTVTTLELKDKITIASKALAKKSVKPILAGFLFEVKDGNFYICATDLETGVKATVNAAEISGEARFVVPGDVIQKMVKVLPDEITELSLEGDALVISSGSTVFRITTMPADEFPEITPAESGITFEVDTSLLEEMVEKVIFAAAKDEFMRNLNGVFWELHKNLLRLVASDGFRLALAEEQIENEEEASFLLSLKSMKEVQNVLDNTTEPTITVRYDGRRVSLSTNDVETVMRVVDAEFPDYKRVIPETFKTKVVVSRKELRESLKRVMVIASKGSESVKFEIEENVMRLVSKSPDYGEVVDEVEVQKEGEDLVIAFNPKFIEDVLKHIETEEIEMNFVDSTSPCQINPLDISGYLYIVMPIRLA | soluble
15 | MRILVTNDDGIQSKGIIVLAELLSEEHEVFVVAPDKERSATGHSITIHVPLWMKKVFISERVVAYSTTGTPADCVKLAYNVVMDKRVDLIVSGVNRGPNMGMDILHSGTVSGAMEGAMMNIPSIAISSANYESPDFEGAARFLIDFLKEFDFSLLDPFTMLNINVPAGEIKGWRFTRQSRRRWNDYFEERVSPFGEKYYWMMGEVIEDDDRDDVDYKAVREGYVSITPIHPFLTNEQCLKKLREVYD | soluble
16 | MGSDKIHHHHHHMSLIERAADKLVKNDMNGFMPGSVSQHDSREGIGPDSLFSSDGVPGKKTGHGRIIKEEVGADRINKAADTKKTVKRIEVDLENLHRKGVVTLHHTKSEIAEQFRLIKRPLLANAFNPDSGVKNGNLIMVTSSLSGEGKSFCSLNLAMSIAMEMDHRVLLVDADVARPSIPATLGFSPEEPGLLDMLRDSQLSISDVMMKTNIKKLTLIPAGRRHTHATELLASQSMHSILVELAQRYHDRVVIFDSPPLLLTSEARVLASQMGQIVLVVEAERTTQQTVKEALQQIEACDVVNLIYNKARAHGSTEYYGYY | not soluble
17 | MSLKNNSEVFNVLHFSDIHIQLRYNVGAEANCTNLPCGAPDSYNKQLLPSSYNFSSYYQHFSPNVAKMEFSFYPDAHYDENSQYIKGDYYDFPLYRGWNFKNAPATSFGGYLTDSPAVLMNSSLISMAKMHKEKNFEFAIFTGDVVDHLLLSCTPEYTKEEEVKSFKAMKFFFNNLTVLPALGNHETGEYGQLSPIAYDFNGSYSWNQDEMVDLWINNEWFPAKDRYDLKSHYAGFSYVTNRGLKVIGLNSNAYYQKNLWSYIDLSTNPDLFGQWEFLVNELIESEEKGQRVWIMAHIPTTDYDTLPLQSRIFGKIVERFSPYTIANIFFAHTHMDQTHILYSTNSSKEAEDIINMSWVMQSVTPLANYNPSWRYYEVENESFNIINSFNYMTKLNDTEGHHHHHH | soluble
18 | MGSDKIHHHHHHMTSDVLVIAPFRRPTFRTAISHLYPVTEPWDSPPLITCGAIQEAGLEVDYVALQNIFNGYDPERDGRDLNEILGVLHPKVVIFSSDHFIPSRSTASIYGISLVSKIFKSRERPPLIGVCGRLATVAAQRLFAEVPEVDFAVIGESDGVIGEVVADLLAADMEETSRRHGYVHTRTAPARDIAYMGDVNDVALPAFALALPSIAQYRSRFGLEENPLPFSLRTSFGCKFKCRFCAGVPHWLDYRKKSPDRVQAELDAFLNQLGDQARISFLEDEIFTRDPEHVAAITALLKERNIYLDGLYTHSTLLTPEIAADLCTVADRVFTGLDNADDQILRKMGKGQLLDTVLDAVEKAQAASLKVHLEWIIGTPEETLDTLVTSLSTIFNLLSTHAVESINTYVYCPHPGTDYTVNAKKYRMRVLDTFDGIQESGGYPAFDTANLTRNQIYTAYLMSQLVIAEVTAARQHSSIPRAVVPASRSELLRLFGMIGEGQVAFDFDEAPVGRVSYPEGTSRA | not soluble
19 | MGHHHHHHSHMIKQRTLKRIVQATGVGLHTGKKVTLTLRPAPANTGVIYRRTDLNPPVDFPADAKSVRDTMLCTCLVNEHDVRISTVEHLNAALAGLGIDNIVIEVNAPEIPIMDGSAAPFVYLLLDAGIDELNCAKKFVRIKETVRVEDGDKWAEFKPYNGFSLDFTIDFNHPAIDSSNQRYAMNFSADAFMRQISRARTFGFMRDIEYLQSRGLCLGGSFDCAIVVDDYRVLNEDGLRFEDEFVRHKMLDAIGDLFMCGHNIIGAFTAYKSGHALNNKLLQAVLAKQEAWEYVTFQDDAELPLAFKAPSAVLA | not soluble
20 | MNEDLTNSTEYKRYGHDYAKYPRRIAEELQHYGGNSFANFFRDEGVLYKEILCDACDHLKVNYNEESATSLIEQNMLSKLLKDSLEKMSRREIKELCNELGMTNIDKVIGENKQVLIASTLTLFKAGGSHSYALAVSVADAMVRQTLGHVMWWVK | not soluble
